Experiments:
HeLa Kyoto [1] = experiment: solubility in G1/S (NP-40 vs SDS abundance) (log2 ratio); higher = more soluble; details: cell cycle stage: G1/S
HeLa Kyoto [2] = experiment: melting temperature (median over replicates), in situ; higher = more thermally stable
HeLa Kyoto [3] = experiment: thermal stability score vs G1/S (z-score of summed log2 fold changes over temperatures); higher = more thermally stable than in G1/S
HeLa Kyoto [4] = experiment: solubility change mitosis vs G1/S (difference of NP-40 vs SDS log2 ratios) (log2 ratio difference); higher = more soluble in mitosis
[5] = cell cycle stage: early G1 (4.5 h after nocodazole release)
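For melting temperature (median over replicates), in situ in this document: HeLa Kyoto cells synchronized by double thymidine or nocodazole block, proteins quantified by TMT10plex mass spectrometry, three independent biological replicates.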
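For solubility change mitosis vs G1/S (difference of NP-40 vs SDS log2 ratios) in this document: synchronized HeLa Kyoto cells (double thymidine block for G1/S, nocodazole release for mitosis), protein amounts in NP-40 versus SDS lysates quantified by mass spectrometry, three biological replicates.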
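For solubility in G1/S (NP-40 vs SDS abundance) in this document: HeLa Kyoto cells arrested at G1/S by double thymidine block, proteins quantified by TMT10plex mass spectrometry in mild NP-40 versus SDS extracts, three biological replicates.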
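For thermal stability score vs G1/S (z-score of summed log2 fold changes over temperatures) in this document: synchronized HeLa Kyoto cells, proteins quantified by TMT10plex mass spectrometry, three biological replicates, mitosis taken 0.5 h after nocodazole release, G1/S directly after double thymidine block.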

Sequence	solubility in G1/S (log2) (HeLa Kyoto [1])	melting temperature (HeLa Kyoto [2]; cell cycle stage: G1/S)	melting temperature (HeLa Kyoto [2]; cell cycle stage: mitosis)	thermal stability score (HeLa Kyoto [3]; [5])	thermal stability score (HeLa Kyoto [3]; cell cycle stage: mitosis)	solubility change mitosis (log2) (HeLa Kyoto [4])
MVLCPVIGKLLHKRVVLASASPRRQEILSNAGLRFEVVPSKFKEKLDKASFATPYGYAMETAKQKALEVANRLYQKDLRAPDVVIGADTIVTVGGLILEKPVDKQDAYRMLSRLSGREHSVFTGVAIVHCSSKDHQLDTRVSEFYEETKVKFSELSEELLWEYVHSGEPMDKAGGYGIQALGGMLVESVHGDFLNVVGFPLNHFCKQLVKLYYPPRPEDLRRSVKHDSIPAADTFEDLSDVEGGGSEPTQRDAGSRDEKAEAGEAGQATAEAECHRTRETLPPFPTRLLELIEGFMLSKGLLTACKLKVFDLLKDEAPQKAADIASKVDASACGMERLLDICAAMGLLEKTEQGYSNTETANVYLASDGEYSLHGFIMHNNDLTWNLFTYLEFAIREGTNQHHRALGKKAEDLFQDAYYQSPETRLRFMRAMHGMTKLTACQVATAFNLSRFSSACDVGGCTGALARELAREYPRMQVTVFDLPDIIELAAHFQPPGPQAVQIHFAAGDFFRDPLPSAELYVLCRILHDWPDDKVHKLLSRVAESCKPGAGLLLVETLLDEEKRVAQRALMQSLNMLVQTEGKERSLGEYQCLLELHGFHQVQVVHLGGVLDAILATKVAP [ASMTL]	-0.0739	51.6 °C	50.8 °C	0.0527	0.533	-0.178
MVMAAKKGPGPGGGVSGGKAEAEAASEVWCRRVRELGGCSQAGNRHCFECAQRGVTYVDITVGSFVCTTCSGLLRGLNPPHRVKSISMTTFTEPEVVFLQSRGNEVCRKIWLGLFDARTSLVPDSRDPQKVKEFLQEKYEKKRWYVPPDQVKGPTYTKGSASTPVQGSIPEGKPLRTLLGDPAPSLSVAASTSSQPVSQSHARTSQARSTQPPPHSSVKKASTDLLADIGGDPFAAPQMAPAFAAFPAFGGQTPSQGGFANFDAFSSGPSSSVFGSLPPAGQASFQAQPTPAGSSQGTPFGATPLAPASQPNSLADVGSFLGPGVPAAGVPSSLFGMAGQVPPLQSVTMGGGGGSSTGLAFGAFTNPFTAPAAQSPLPSTNPFQPNGLAPGPGFGMSSAGPGFPQAVPPTGAFASSFPAPLFPPQTPLVQQQNGSSFGDLGSAKLGQRPLSQPAGISTNPFMTGPSSSPFASKPPTTNPFL [AGFG2]	0.247	46.6 °C	47.9 °C	0.518	0.826	-0.0538
MVPALRYLVGACGRARGLFAGGSPGACGFASGRPRPLCGGSRSASTSSFDIVIVGGGIVGLASARALILRHPSLSIGVLEKEKDLAVHQTGHNSGVIHSGIYYKPESLKAKLCVQGAALLYEYCQQKGISYKQCGKLIVAVEQEEIPRLQALYEKGLQNGVPGLRLIQQEDIKKKEPYCRGLMAIDCPHTGIVDYRQVALSFAQDFQEAGGSVLTNFEVKGIEMAKESPSRSIDGMQYPIVIKNTKGEEIRCQYVVTCAGLYSDRISELSGCTPDPRIVPFRGDYLLLKPEKCYLVKGNIYPVPDSRFPFLGVHFTPRMDGSIWLGPNAVLAFKREGYRPFDFSATDVMDIIINSGLIKLASQNFSYGVTEMYKACFLGATVKYLQKFIPEITISDILRGPAGVRAQALDRDGNLVEDFVFDAGVGDIGNRILHVRNAPSPAATSSIAISGMIADEVQQRFEL [L2HGDH]	0.0471	53.9 °C	53.6 °C	0.996	0.751	-0.123
MVQAWYMDDAPGDPRQPHRPDPGRPVGLEQLRRLGVLYWKLDADKYENDPELEKIRRERNYSWMDIITICKDKLPNYEEKIKMFYEEHLHLDDEIRYILDGSGYFDVRDKEDQWIRIFMEKGDMVTLPAGIYHRFTVDEKNYTKAMRLFVGEPVWTAYNRPADHFEARGQYVKFLAQTA [ADI1]	0.18	51.1 °C	51.1 °C	-0.911	-0.735	-0.0474
MVQLYNLHPFGSQQVVPCKLEPDRFCGGGRDALFVAAGCKVEAFAVAGQELCQPRCAFSTLGRVLRLAYSEAGDYLVAIEEKNKATFLRAYVNWRNKRTENSRVCIRMIGHNVEGPFSKAFRDQMYIIEMPLSEAPLCISCCPVKGDLLVGCTNKLVLFSLKYQIINEEFSLLDFERSLIIHIDNITPVEVSFCVGYVAVMSDLEVLIVKLESGPKNGERVHHHPHKTNNRIRRTEEGISNEISQLESDDFVICQKPLELLGEKSEQSGLSVTLESTGLADEKRKYSHFQHLLYRRFAPDISSYVLSDDIKLHSLQLLPIYQTGSLTSDGKNLSQEKELLSLFCFFSLPHVGYLYMVVKSVELMSVYQYPEKSQQAVLTPQFLHVITSNNLQCFTVRCSAAAAREEDPYMDTTLKACPPVSMDVCALRIQLFIGLKAICHFKNHIILLTKAEPEAIPERRQSPKRLLSRKDTSVKIKIPPVAEAGWNLYIVNTISPVQLYKEMVDYSNTYKTVKTQSCIHLLSEAHLLVRAALMDASQLEPGEKAELLEAFKESCGHLGDCYSRLDSQHSHLTLPYYKMSGLSMAEVLARTDWTVEDGLQKYERGLIFYINHSLYENLDEELNEELAAKVVQMFYVAEPKQVPHILCSPSMKNINPLTAMSYLRKLDTSGFSSILVTLTKAAVALKMGDLDMHRNEMKSHSEMKLVCGFILEPRLLIQQRKGQIVPTELALHLKETQPGLLVASVLGLQKNNKIGIEEADSFFKVLCAKDEDTIPQLLVDFWEAQLVACLPDVVLQELFFKLTSQYIWRLSKRQPPDTTPLRTSEDLINACSHYGLIYPWVHVVISSDSLADKNYTEDLSKLQSLICGPSFDIASIIPFLEPLSEDTIAGLSVHVLCRTRLKEYEQCIDILLERCPEAVIPYANHELKEENRTLWWKKLLPELCQRIKCGGEKYQLYLSSLKETLSIVAVELELKDFMNVLPEDGTATFFLPYLLYCSRKKPLT [HPS3]	-0.0533	51.4 °C	50.6 °C	0.612	0.736	-0.103
MVSKMIIENFEALKSWLSKTLEPICDADPSALAKYVLALVKKDKSEKELKALCIDQLDVFLQKETQIFVEKLFDAVNTKSYLPPPEQPSSGSLKVEFFPHQEKDIKKEEITKEEEREKKFSRRLNHSPPQSSSRYRENRSRDERKKDDRSRKRDYDRNPPRRDSYRDRYNRRRGRSRSYSRSRSRSWSKERLRERDRDRSRTRSRSRTRSRERDLVKPKYDLDRTDPLENNYTPVSSVPSISSGHYPVPTLSSTITVIAPTHHGNNTTESWSEFHEDQVDHNSYVRPPMPKKRCRDYDEKGFCMRGDMCPFDHGSDPVVVEDVNLPGMLPFPAQPPVVEGPPPPGLPPPPPILTPPPVNLRPPVPPPGPLPPSLPPVTGPPPPLPPLQPSGMDAPPNSATSSVPTVVTTGIHHQPPPAPPSLFTADTYDTDGYNPEAPSITNTSRPMYRHRVHAQRPNLIGLTSGDMDLPPREKPPNKSSMRIVVDSESRKRTIGSGEPGVPTKKTWFDKPNFNRTNSPGFQKKVQFGNENTKLELRKVPPELNNISKLNEHFSRFGTLVNLQVAYNGDPEGALIQFATYEEAKKAISSTEAVLNNRFIKVYWHREGSTQQLQTTSPKVMQPLVQQPILPVVKQSVKERLGPVPSSTIEPAEAQSASSDLPQNVTKLSVKDRLGFVSKPSVSATEKVLSTSTGLTKTVYNPAALKAAQKTLLVSTSAVDNNEAQKKKQEALKLQQDVRKRKQEILEKHIETQKMLISKLEKNKTMKSEDKAEIMKTLEVLTKNITKLKDEVKAASPGRCLPKSIKTKTQMQKELLDTELDLYKKMQAGEEVTELRRKYTELQLEAAKRGILSSGRGRGIHSRGRGAVHGRGRGRGRGRGVPGHAVVDHRPRALEISAFTESDREDLLPHFAQYGEIEDCQIDDSSLHAVITFKTRAEAEAAAVHGARFKGQDLKLAWNKPVTNISAVETEEVEPDEEEFQEESLVDDSLLQDDDEEEEDNESRSWRR [RBM26]	-0.109	47 °C	48.9 °C	1.92	4.06	0.0367

From the supplement of paper PMC5998384
